Positions count from the first letter of the chain named. Names and notes keep the numbering of the source.
Assays:
[1] = target: the molecule itself; experiment: cross-linking; recombinant PRX3 incubated with indicated concentrations of thiostrepton (TS) for 30 min; reducing SDS-PAGE, immunoblot with anti-PRX3 antibody
[2] = target: the molecule itself; experiment: cross-linking; EE Mut cycled with and without TS as in the in vitro assay, treated with DTT, exchanged into 25 mM ammonium bicarbonate; intact mass by ESI-TOF MS
[3] = target: the molecule itself; experiment: cross-linking; in vitro PRX3 turnover: 100 μM PRX3, 5 μM E. coli TRX2, 0.5 μM E. coli TR, NADPH regenerating system (or TCEP), 0.2 mM TS or DMSO, 16-18 h at 37°C, successive additions of 100 μM H2O2; reducing SDS-PAGE, GelCode Blue stain

B1: Human recombinant PRX3 (peroxiredoxin 3), wild type, residues 62-256 (enzyme, UniProt P30048 62-256, looked up)
chain: APAVTQHAPYFKGTAVVNGEFKDLSLDDFKGKYLVLFFYPLDFTFVCPTEIVAFSDKANEFHDVNCEVVAVSVDSHFSHLAWINTPRKNGGLGHMNIALLSDLTKQISRDYGVLLEGSGLALRGLFIIDPNGVIKHLSVNDLPVGRSVEETLRLVKAFQYVETHGEVCPANWTPDSPTIKPSPAASKEYFQKVNQ
notes: peroxiredoxin 3 (PRX3), human, PRDX3 gene residues 62-256, codon optimized, in pET15b; also called rPRX3; WT PRX3; source: E. coli C41 (DE3), purified (nickel-NTA, Q-Sepharose FF, Superdex 200); not shown: His-tag, N-terminal, kept
binding result [1]: binds

B2: Engineered dimer of PRX3, S139E/A142E (EE Mut), residues 62-256 (enzyme, human, UniProt P30048 62-256, looked up)
chain: B1 chain with S78E, A81E
notes: peroxiredoxin 3 (PRX3), human, PRDX3 gene residues 62-256, two charged residues introduced into the dimer-dimer interface; His-tag removed by digestion with biotinylated thrombin; Measured mass of the reduced monomer 21640.6 amu; also called EE mutant; dimeric variant of PRX3; source: E. coli C41 (DE3), purified (nickel-NTA, Q-Sepharose FF, Superdex 200); not shown: His-tag, N-terminal, cleaved
stoichiometry N [2]: 2

B3: Human recombinant PRX3 C127S, residues 62-256 (enzyme, UniProt P30048 62-256, looked up)
chain: B1 chain with C66S
notes: peroxiredoxin 3 (PRX3), human, PRDX3 gene residues 62-256, non-catalytic cysteine replaced with serine; also called Cys127 mutant; source: E. coli C41 (DE3), purified (nickel-NTA, Q-Sepharose FF, Superdex 200); not shown: His-tag, N-terminal, kept
binding result [3]: binds

Source: article PMC4444329, “Disabling Mitochondrial Peroxide Metabolism via Combinatorial Targeting of Peroxiredoxin 3 as an Effective Therapeutic Approach for Malignant Mesothelioma” (PLoS ONE, 2015)
